In the RNAGym collection of RNA variant scans (doi:10.7554/elife.80360) one finds self-cleavage data, which are given here for 167 variants.

Sequences and labels used below:
B1: HDV Ribozyme (parent)
chain: GGCCGGCAUGGUCCCAGCCUCCUCGCUGGCGCCGGCUGGGCAACAUUCCGAGGGGACCGUCCCCUCGGUAAUGGCGAAUGGGACCCA

The data set covers variants of B1. As to the kind of experiment: self-cleavage, relative activity (ratio to wild type); higher = more cleavage; co-transcriptional.
With A70G C86A, the self-cleavage turned out to be 0.743. With A70G G82C the figure was 0.259; with A70G G82A, 0.394. Regarding A71U G73A, the self-cleavage amounted to 0.432. As for A70C C85G, the figure is 1.2; as for A70C C85U, 1.07. In the case of A70U G76U, the self-cleavage came to 1.07. For A70U G81U, the self-cleavage is 0.469.

With A70U G81C, the self-cleavage came out at 0.193. Regarding A70U G81A, the self-cleavage stood at 0.332.

For A70C G81A, the self-cleavage came out at 0.453. Turning to A70C G81U, the self-cleavage worked out at 0.249.

As to A71U G82U, the self-cleavage is 0.248.

In the case of A71U G82C, the self-cleavage was 0.135. With A70C U79A the figure was 0.72. As to A70C U79G, the self-cleavage amounted to 0.554. In the case of A71C A78U, the self-cleavage worked out at 0.147. As for U72A A78G, the figure is 0.504. As for U72A A78U, the figure is 0.161; as for A71U C85U, 1.17; as for A70C G74A, 0.308. With A70C G74C the figure was 0.262; with A70G G76C, 0.956. Turning to A70G G76U, the self-cleavage was found to be 0.997. With A70U C85G the figure was 0.724. For A70C C86G, the self-cleavage is 1.35.

For the variant A71C U79G, the self-cleavage is 0.437. For A71C U79A, the self-cleavage amounted to 0.529.

A70C A83C: the self-cleavage worked out at 0.434. With A70C A83G the figure was 0.543; with A71G A78C, 0.138. As for U72A G73A, the figure is 0.617. As for U72A G73U, the self-cleavage came out at 0.612. On to A71C, for which the self-cleavage worked out at 0.84. Consider A71G, for which the self-cleavage worked out at 0.957.

For A71U, the self-cleavage was 0.93. Consider A70C G82C, for which the self-cleavage was found to be 0. Regarding A70C G82A, the self-cleavage is 0.181. For the variant A71U U72G, the self-cleavage turned out to be 0.684. With U72A A77C the figure was 0.199; with U72A A83G, 0.318; with U72A A83C, 0.219. For the variant U72A A83U, the self-cleavage was determined as 0.166. Regarding A71G C86G, the self-cleavage came out at 1.01. Regarding A71U A83G, the self-cleavage is 0.677. Take A71U A83C: the self-cleavage came to 0.391. In the case of A70G A87C, the self-cleavage is 0.883.

Turning to A70G A87U, the self-cleavage turned out to be 0.928. As to U72A C85U, the self-cleavage was determined as 0.764. As for U72A C85A, the figure is 0.399; as for U72A C85G, 0.831; as for A70C C75G, 0.0615. As for A70C C75U, the figure is 0.0875; as for A70G U72C, 0.54; as for A70C G76A, 0.96. On to A70C G76C, for which the self-cleavage is 0.796.

For A70U G74C, the self-cleavage turned out to be 0.237.

For the variant A70C U72G, the self-cleavage is 0.185.

For the variant A70C U72A, the self-cleavage came to 0.653.

Turning to A71U G74C, the self-cleavage is 0.244.

A71C C86A: the self-cleavage stood at 0.831.

For A71C C86U, the self-cleavage worked out at 0.665.

For the variant A70U G80A, the self-cleavage is 0.445. With A70U G80C, the self-cleavage worked out at 0.213. As for A71C A83G, the figure is 0.582; as for A71C A83U, 0.297. On to A71C A83C, for which the self-cleavage came to 0.229. With A70U C75U the figure was 0.219. As for A70U C75G, the figure is 0.231. With A70U C75A the figure was 0.0898. In the case of A70U U79C, the self-cleavage stood at 0.277. As for A70U U79A, the figure is 0.831; as for A70C C84U, 0.594; as for A70C C84A, 0.646. With A70U C86A the figure was 1.02; with A70U C86U, 1.07; with A70U C86G, 0.872.

For the variant A71U A87C, the self-cleavage was 0.913.

Regarding A70G A78G, the self-cleavage turned out to be 0.655. With A70G A78C, the self-cleavage came to 0.151. With A71U G80A the figure was 0.175; with A70G A77U, 0.426; with A70G A77C, 0.178. A70U A83C: the self-cleavage turned out to be 0.458. With A70U A83U, the self-cleavage worked out at 0.237.

As for A70G C85G, the self-cleavage is 0.831.

For the variant A71U G76C, the self-cleavage turned out to be 0.914. With A71U G76A the figure was 0.932; with A71C G74A, 0.453. Consider A71C G74C, for which the self-cleavage was found to be 0.128. With A70G G81A the figure was 0.378. As for A70G G81U, the figure is 0.0978; as for A71U C86A, 0.729. With A71U C86G the figure was 0.752. As to A71U A78U, the self-cleavage was 0.185. As for A70U A87U, the figure is 1.2. With A70U A87G, the self-cleavage came out at 1.02. As for A71C C84A, the figure is 0.511. As for A71C C84U, the figure is 0.604; as for A70U G73A, 0.614; as for A70U G73U, 0.169. As for A70U A77G, the figure is 0.665; as for A70U A77U, 0.35; as for A70U A78U, 0.404. Regarding A70U A78G, the self-cleavage was determined as 0.7. Regarding A70C G73A, the self-cleavage stood at 0.407. For A70C G73C, the self-cleavage came to 0.514. With A70C G73U the figure was 0.302; with U72A A87C, 0.81; with U72A A87G, 0.452. With U72A A87U the figure was 0.729; with A71U C84U, 0.475. As for A71U C84A, the self-cleavage turned out to be 0.862.

Take A71U C84G: the self-cleavage was 0.481. As for A71G G81A, the figure is 0.475; as for A71G G81C, 0.131; as for A71C G81C, 0.172.

On to A71C G81A, for which the self-cleavage was 0.309.

For A71G U79G, the self-cleavage amounted to 0.256. As to A71G U79A, the self-cleavage worked out at 0.997. With A71G G73A, the self-cleavage amounted to 0.689. With A70G G73A the figure was 0.432; with A70G G73U, 0.138. As for A70U C84U, the figure is 0.627; as for U72A C86A, 0.79; as for A71G C85G, 1.03.

Turning to A71G C85U, the self-cleavage worked out at 0.962. As for A71G C85A, the figure is 0.674; as for A71C G73C, 0.378; as for A71C G73U, 0.141. With A71G A77U the figure was 0.764; with A71G A77G, 0.88.

For A70G C84A, the self-cleavage worked out at 0.853.

For the variant A71G G80U, the self-cleavage is 0.196. With A71G G76U the figure was 1.1; with A70G A83G, 0.692; with A70G A83U, 0.511. With A71C G82A the figure was 0.111; with A71C G82U, 0.298.

As for A71U U79C, the self-cleavage was determined as 0.314. As for A71U U79A, the figure is 0.782. As for A70U, the figure is 0.953; as for A70G, 0.969; as for A71U G81C, 0.345. In the case of A71U G81U, the self-cleavage was 0.185. As for A71U C75U, the figure is 0.218. As to A71C C85G, the self-cleavage is 0.554. For A71G A87U, the self-cleavage is 0.95.

Regarding A71G A87G, the self-cleavage was 1.06. In the case of A71G C75G, the self-cleavage was found to be 0.0755. A71G C75A: the self-cleavage was 0.158.

For the variant A70U G82U, the self-cleavage stood at 0.567. Turning to A70U G82A, the self-cleavage turned out to be 0.469.

With A70U G82C, the self-cleavage is 0.35.

Consider A70G C75A, for which the self-cleavage came to 0.201.

As for A71C A87G, the self-cleavage stood at 0.993. With A70C A87C the figure was 0.831.

Turning to A70C A87G, the self-cleavage was determined as 0.858.

For A70C A87U, the self-cleavage amounted to 1.04.

With A71G U72G, the self-cleavage came to 0.516. With A71C C75A the figure was 0.0852; with A71C C75U, 0.199; with A71C C75G, 0.131.

As for A71G C84U, the self-cleavage worked out at 0.831. Take A71G C84G: the self-cleavage worked out at 0.465. Consider A71G A83G, for which the self-cleavage was 1.09. As for U72A C84A, the figure is 0.639.
